Measurements taken from patent US6146862A.

Substrate: NC(=O)C1=CN([C@@H]2O[C@H](COP(=O)(O)OP(=O)(O)OC[C@H]3O[C@@H](n4cnc5c(N)ncnc54)[C@H](O)[C@@H]3O)[C@@H](O)[C@H]2O)C=CC1
Test: purified protein, by the assay type
Details: other: recombinant enzyme purified from E. coli JM109/pSDE1, assay 50 mM Tris-HCl pH 8.5, 0.06 mM DCIP, 30° C.

B1: Bacillus stearothermophilus UK-563 thermostable diaphorase, recombinant (E. coli JM109/pSDE1), SEQ ID No.1 (Geobacillus stearothermophilus) (protein)
chain: MTNVLYITAHPHDDTQSYSMAVGKAFIDTYKQVHPDHEVIHLDLYKEYIPEIDVDVFSGWGKLRSGKSFEELSDEEKAKVGRMNELCEQFISADKYVFVTPMWNFSFPPVLKAYIDAVAVAGKTFKYTEQGPVGLLTDKKALHIQARGGFYSEGPAAEMEMGHRYLSVIMQFFGVPSFEGLFVEGHAAVPEKAEEIKANAIARAKDLAHTF
  Km: 500 µM
